# Data reported in PMC4964982 (2016).
# Bridge positions count the residues as written; N and C are the ends. Square brackets hold non-standard residues; d marks the D form. Ends that are not written are not given here. S5 = C=CCCC[C@](C)(N)C(=O)O
# T1: SRC2-SP4 687-697 (Homo sapiens, UniProt Q15596, staple 3-7)
# T1 chain: HK[S5]LHR[S5]LQDS
# T2: PFE-SP2 687-697 (Homo sapiens, UniProt Q15596, staple 3-7; also: R to Q substitution, place not given here)
# T2 chain: HK[S5]LHR[S5]LQDS
# T3: SRC2-WT 687-697 (Homo sapiens, UniProt Q15596)
# T3 chain: HKILHRLLQDS
# B1: ERα LBD (protein)
# chain: NSLALSLTADQMVSALLDAEPPILYSEYDPTRPFSEASMMGLLTNLADRELVHMINWAKRVPGFVDLTLHDQVHLLECAWLEILMIGLVWRSMEHPGKLLFAPNLLLDRNQGKCVEGMVEIFDMLLATSSRFRMMNLQGEEFVCLKSIILLNSGVYTFLSSTLKSLEEKDHIHRVLDKITDTLIHLMAKAGLTLQQQHQRLAQLLLILSHIRHMSNKGMEHLYSMKCKNVVPLYDLLLEMLDAHRLHAPTS
# Legend:
# Test in all cases: TR-FRET competition with SRC3 fragment
# SRC2-SP4 687-697 = target: T1, SRC2-SP4 687-697
# PFE-SP2 687-697 = target: T2, PFE-SP2 687-697
# SRC2-WT 687-697 = target: T3, SRC2-WT 687-697
binder,measurement,setting,value
B1,IC50,SRC2-SP4 687-697,390 nM
same,IC50,PFE-SP2 687-697,760 nM
same,IC50,SRC2-WT 687-697,1100 nM
